Results reported in publication PMC2115935.

Target: integral membrane proteins of stripped rat liver cell membranes (rat (endogenous in liver))
Test: co-sedimentation

Substance: Actin, isolated from rabbit skeletal muscle, 125I-labeled (from UniProt P68135 1-377) (natural protein)
- Kd: 1600 nM
